In patent US20090035281A1, “COMBINATION OF INTERLEUKIN-6 ANTAGONISTS AND ANTIPROLIFERATIVE DRUGS” (Universita Degli Studi "Magna Graecia" Di Catanzaro, priority 2005, published 2009):

Assays:
[1] = test system: human IL-6-dependent multiple myeloma (MM) cell line, INA-6; experiment: Cell proliferation assay ([3H]-thymidine incorporation), INA-6 cells with exogenous IL-6; assay type: cell-based; details: INA-6, exogenous IL-6 present, 3 days' exposure
Procedure: The formation, characterisation and in-vitro culturing of the IL-6-dependent human MM cell line INA-6 is described in Burger, R., et al.; Hematol. J., 2001; 2:42-53. The cells were maintained in RPMI 1640 culture medium (GIBCO, Grand Island, N.Y.) added with 10% foetal calf serum (FCS, Hyclone, Logan, Utah), L-glutamine 2 mM (GIBCO), 100 μg/ml of streptomycin (GIBCO) and 100 U/ml of penicillin (GIBCO) in the presence of 2.5 ng/ml of IL-6 at 37° C. in a 5% CO2 atmosphere
(§1) Cell proliferation was measured by incorporation of [^3H]-thymidine (NEN Life Science Products, Boston, Mass.). Cells (2×10^4 cells/well) were incubated on 96-well culture plates in the presence or absence of 70-80% confluent BMSC at 37° C. with or without the study substance (in wells in triplicate) for 72 h. [^3H]-thymidine (0.5 μCi) was then added to each well for at least 8 h. Cells were collected on glass filters with an automatic cell collector (Cambridge Technology, Cambridge, Mass.) and counted using a Micro-Beta Trilux counter (Wallac, Gaithersburgh, Md.).
IL-6 has been identified as one of the main factors in the growth and survival of MM cells. […] INA-6 cells were seeded and cultured on 96-well plates in the presence of exogenous IL-6, and then, after 3 days' exposure of the cells to the drugs, cell proliferation and apoptosis were determined.

[2] = test system: human IL-6-dependent multiple myeloma (MM) cell line, INA-6; experiment: Detection of apoptosis (annexin V-FITC / propidium iodide flow cytometry), INA-6 cells with exogenous IL-6; assay type: cell-based; details: INA-6, exogenous IL-6 present, 3 days' exposure
Procedure: To detect the induction of cell death by apoptosis, double staining was performed with annexin V labelled with FITC and propidium iodide (PI). After treating 1×10^6 tumour cell for 48 h, the cells were washed with PBS and resuspended in 100 μl of HEPES buffer containing annexin V-FITC and propidium iodide (PI) (Annexin V-FLUOS staining kit; Roche Diagnostic, Indianapolis, Ind.). After 15 minutes' incubation at room temperature, the cells were analysed using a Coulter Epics XL flow cytometer to detect the presence of an apoptotic cell population staining positive for annexin V-FITC and negative for PI.
IL-6 has been identified as one of the main factors in the growth and survival of MM cells. INA-6 is a human myeloma cell line that requires exogenous IL-6 for growth in vitro (FIG. 1A). […] INA-6 cells were seeded and cultured on 96-well plates in the presence of exogenous IL-6, and then, after 3 days' exposure of the cells to the drugs, cell proliferation and apoptosis were determined.

[3] = test system: INA-6 cells adhering to bone marrow stromal cells (BMSC); experiment: Cell proliferation of INA-6 cells adhering to BMSC, no exogenous IL-6; assay type: cell-based, human; details: 70-80% confluent BMSC, no exogenous IL-6, 3 days after treatment
Procedure: as §1
Since the paracrine production of IL-6 occurs when the MM cells adhere to BMSC (Uchiyama, H., et al.; Blood, 1993; 82:3712-3720), the supporting effect of BMSC for the in-vitro growth of INA-6 cells after exposure to the drugs was evaluated. The INA-6 cells were seeded on 70-80% confluent BMSC, in the absence of exogenous IL-6, and the cell proliferation was established 3 days after the treatment.

[4] = test system: INA-6 MM cells in human foetal bone implant; experiment: SCID-hu INA-6 mouse model of human MM, tumour growth by serum shuIL-6R; assay type: in vivo; details: for reduction in serum shuIL-6R (marker of tumour growth) vs control group: s.c., SANT-7 3.3 mg/kg or Dex 1 mg/kg alone, 5 consecutive days; for tolerability in SCID-hu mice: treatment with single agent
Procedure: Male SCID C-17 mice aged from six to eight weeks (Taconic Germany, N.Y.) were housed and monitored in our Animal Research Facility. All the experimental procedures and protocols were approved by the Institutional Committee on the Treatment and Use of Animals. Human foetal femur transplants were implanted in SCID (SCID-hu) mice, as described in Urashima, M., et al.; Blood, 1997; 90(2): 754-65; Tassone, P., et al.; Blood, 2004. Four weeks after implantation, 2.5×10^6 INA-6 MM cells in 50 μl of PBS were injected into the foetal bone implant in the SCID-hu hosts. Serum levels of the interleukin-6 soluble receptor (shuIL-6R) (R & D Systems Inc., Minneapolis, Minn.) were monitored in the mice.
(§2) In these mice serum shuIL-6R was measured as a marker of tumour growth and disease severity, since it is released by the INA-6 cells. First, the pharmacokinetics of SANT-7 was determined.

[5] = In-vivo kinetics of SANT-7 after s.c. injection; parameters: species or system SCID-hu mouse
Procedure: A) Sant-7 (3.3 mg/kg) was injected s.c. into a SCID-hu mouse and its kinetics was evaluated with serial determinations of IL-6 in serum. B) Tumour growth in SCID-hu mice implanted with INA-6 cells was monitored with serial measurements of shuIL-6R. […] P values were obtained by comparison between the control groups and the groups treated with the combination. The data were expressed as mean±SE.
as §2

purified CD34+ HPC = experiment: Clonogenic progenitor assays in methylcellulose; assay type: cell-based, human; details: for CFC-GM: SANT-7 200 ng/ml, Dex 10^-5 M; for Total: total colonies
Description: (§3) Peripheral blood mobilised CD34^+ HPC were isolated from leukapheresis products of patients with haematopoietic and non-haematopoietic tumours, treated with high-dose chemotherapy and G-CSF or GM-CSF. Peripheral blood mononuclear cells were obtained by centrifugation across a Ficoll density gradient (Seromed, Berlin, Germany), washed and submitted to positive selection using the CD34 Progenitor Cell Isolation Kit (Miltenyi Biotech, Bergish Gladbach, Germany). In brief, CD34^+ HPC were magnetically labelled indirectly using a primary monoclonal antibody conjugated with a hapten and an anti-hapten antibody coupled with MACS MicroBeads (Miltenyi). The labelled cells were subsequently enriched with the MiniMACS magnetic field.
The clonogenic progenitor assays were carried out in methylcellulose as described previously with minor modifications. In brief, 1×10^3 freshly isolated CD34^+ HCP were seeded in IMDM (GIBCO) containing 1% methylcellulose, 30% foetal calf serum (Hyclone), 1% bovin serum albumin (Sigma), L-glutamine 2 mM (GIBCO) and 2β-mercaptoethanol 10^−4 M (Stemcell Technologies Inc., Vancouver, Canada). To induce granulomonocytic or erythroid differentiation, the cells were stimulated with IL-3 (50 ng/ml), GM-CSF (100 ng/ml), G-CSF (100 ng/ml) or IL-3 (50 ng/ml), GM-CSF (100 ng/ml), SCF (50 ng/ml) ed Epo (3 U/ml), respectively. […] 1 ml aliquots were plated in triplicate on 35 mm culture plates (Falcon) at 37° C. in a 5% CO2 humidified atmosphere. After 14 days' culture, the granulomonocytic colonies (CFC-GM) and the erythroid colonies (BFU-E) were counted by examining the cultures under an inverted microscope.

[6] = test system: human CD34+ Haematopoietic Progenitor Cells (HPC); experiment: Liquid culture of CD34+ HPC, flow cytometric cell cycle (DNA content, PI) analysis; assay type: cell-based; details: 6 days liquid culture with haemopoietins + IL-6
Description: as §3

[7] = single s.c. injection 3.3 mg/kg

| Molecule | growth inhibition of MM cells [1] | death by apoptosis in MM cells [2] | growth inhibition of INA-6 cells adhering to BMSC [3] | reduction in serum shuIL-6R (marker of tumour growth) vs control group [4] | tolerability in SCID-hu mice [4] | time drug remains in circulation after the injection [5, 7] | time to SANT-7 serum peak [5, 7] | clearance ([5]; subcutaneous administration) | effect on generation of CFC-GM and BFU-E in response to haemopoietins (purified CD34+ HPC; CD34+ HPC, clonogenic assays) | CFC-GM (purified CD34+ HPC; colonies, IL3 + GM + G + IL6 (granulomonocytic differentiation), 1 × 10^3 cells/plate, day 14, mean ± SD) | CFC-GM (purified CD34+ HPC; colonies, IL3 + GM + SCF + Epo + IL6 (erythroid differentiation), 1 × 10^3 cells/plate, day 14, mean ± SD) | BFU-E (purified CD34+ HPC; colonies, IL3 + GM + SCF + Epo + IL6, 1 × 10^3 cells/plate, day 14, mean ± SD) | Total (purified CD34+ HPC; IL3 + GM + G + IL6, 1 × 10^3 cells/plate, day 14, mean ± SD) | Total (purified CD34+ HPC; IL3 + GM + SCF + Epo + IL6, 1 × 10^3 cells/plate, day 14, mean ± SD) | apoptosis rate of CD34+ cells [6] | effect on cell proliferation (cell cycle) of CD34+ cells [6] |
| --- | --- | --- | --- | --- | --- | --- | --- | --- | --- | --- | --- | --- | --- | --- | --- | --- |
| C[C@@H]1C[C@H]2[C@@H]3CCC4=CC(=O)C=C[C@]4(C)[C@@]3(F)[C@@H](O)C[C@]2(C)[C@@]1(O)C(=O)CO [Dex, dexamethasone, reference compound] | neither modified cell proliferation | nor induced apoptosis | activity was inhibited | did not induce any significant reduction | well tolerated |  |  |  |  |  |  |  |  |  |  |  |
| SANT-7: superantagonist of the IL-6 receptor, molecular variant of IL-6 totally incapable of binding gp130, sequence SEQ ID No. 4 (protein, listed as Homo sapiens) PVPPGEDSKDVAAPHRQPLTSSERIDKQIRDILDFISALRKETCNKSNMCESSKEADAFWNLNLPKMAEKDGCFYKGFNEETCLVKIITGLLEFEVYLEYLQNRFESSEEQARAVQMRTKDLIQFLQKKAKNLDAITTPDPTTNASLLTKLQAQNQWLQDMTTHLILRSFKEFLIRSLRALRAM | high rates of growth inhibition | high rates | reduced the efficacy of the growth inhibition | did not induce any significant reduction | well tolerated | 4 h | 30 min | very rapid clearance | does not interfere appreciably | 73 ± 2 | 21 ± 1 | 50 ± 2 | 73 ± 2 | 71 ± 1 | No significant apoptosis rate | does not significantly affect cell proliferation |
